# Experimental data published in paper PMC12333349, “Endogenous Aquaporin‑0 Lipid Binding in Ocular Lens Tissue via Native Mass Spectrometry” (Journal of the American Society for Mass Spectrometry, 2025).
# B1: Aquaporin-0 (natural protein, bovine, UniProt P06624 1-263, looked up)
# chain: MWELRSASFWRAICAEFFASLFYVFFGLGASLRWAPGPLHVLQVALAFGLALATLVQAVGHISGAHVNPAVTFAFLVGSQMSLLRAICYMVAQLLGAVAGAAVLYSVTPPAVRGNLALNTLHPGVSVGQATIVEIFLTLQFVLCIFATYDERRNGRLGSVALAVGFSLTLGHLFGMYYTGAGMNPARSFAPAILTRNFTNHWVYWVGPVIGAGLGSLLYDFLLFPRLKSVSERLSILKGSRPSESNGQPEVTGEPVELKTQAL
# notes: Aquaporin-0 (AQP0), bovine lens; the most abundant species is full-length AQP0, tetramer average mass 112,898 Da; Lower-abundance singly and doubly phosphorylated tetramers were also detected; Samples were in 200 mM ammonium acetate with 2x CMC C8E4 (residual OG possible); also called AQP0; crude AQP0; source: endogenous, bovine lens cortex and nucleus: crude urea-washed membrane pellets …
# Biological target: the molecule itself
# Assay: native MS; crude bovine lens cortex or nucleus membrane preparation, solubilised in 1% OG, exchanged into 200 mM ammonium acetate, 2x CMC C8E4; static nanospray, Q Exactive UHMR; HCD at 200 V fragmented the tetramer mainly into monomers
protein,measurement,value
B1,stoichiometry N,4
